Test [1] deals with RSV A + RSV B bivalent composition (RSV subtype A; RSV subtype B). The test can be described thus: AM14 Fab titration by SEC; composition of Table 14; Drying Temp + Ramp Aggressive cycle.
Test [2] has the same target. The test can be described thus: AM14 Fab titration by SEC; High-Slow 1 cycle; 1 M 40°C (second value).
Test [3] has the same target. The test is described as follows: AM14 Fab titration by SEC; Low-Fast cycle; T0.
For test [4] the target is unchanged. The test can be described thus: AM14 Fab titration by SEC; Low-Fast cycle; 1 M 40°C (second value). (In general: SEC sorts molecules by how far they enter the pores of the column.)
For test [5] the target is unchanged. The test can be described thus: AM14 Fab titration by SEC; High-Slow 1 cycle; 8 M 2-8°C.
Test [6] addresses T1, RSV F protein of subtype A comprising a polypeptide of SEQ ID NO: 1 and a polypeptide of SEQ ID NO: 2 (RSV subtype A, UniProt P11209 137-513; P03420 26-109).
T1 construct: Stabilized prefusion F trimer made of three F2-F1 heterodimers; Produced recombinantly in CHO cells; also called RSV A; RSVA
T1 chain 1: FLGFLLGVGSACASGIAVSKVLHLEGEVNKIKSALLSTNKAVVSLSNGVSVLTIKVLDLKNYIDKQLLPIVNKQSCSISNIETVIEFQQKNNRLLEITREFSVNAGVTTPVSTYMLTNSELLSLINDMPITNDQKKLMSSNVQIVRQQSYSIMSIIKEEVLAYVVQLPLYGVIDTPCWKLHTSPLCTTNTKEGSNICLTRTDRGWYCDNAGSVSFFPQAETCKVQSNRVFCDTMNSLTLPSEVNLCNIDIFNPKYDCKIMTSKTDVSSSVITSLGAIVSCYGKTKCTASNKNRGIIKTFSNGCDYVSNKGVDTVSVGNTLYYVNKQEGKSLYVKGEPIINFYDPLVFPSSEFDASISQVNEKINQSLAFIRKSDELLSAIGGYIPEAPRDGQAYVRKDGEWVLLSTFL
T1 chain 2: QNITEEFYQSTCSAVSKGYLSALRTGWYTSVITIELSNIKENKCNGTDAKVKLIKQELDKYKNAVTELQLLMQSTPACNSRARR
The test can be described thus: AM14 ELISA; F3 (pH 8, 0 mM NaCl, 9% sucrose); 2 wk 5°C. Background: ELISA stands for enzyme-linked immunosorbent assay.

Test [7] concerns the target T1, RSV F protein of subtype A comprising a …. The test is described as follows: AM14 ELISA; F1 (pH 8, 100 mM NaCl, 0% sucrose); 2 wk 25°C.
Test [8] shares this target. The test can be described thus: AM14 ELISA; F10 (pH 7, 50 mM NaCl, 4.5% sucrose); 2 wk 5°C.
For test [9] the target is unchanged. The test can be described thus: AM14 ELISA; F7 (pH 6, 100 mM NaCl, 0% sucrose); T0.
For test [10] the target is unchanged. The test can be described thus: AM14 ELISA; F13 (pH 7, 100 mM NaCl, 4.5% sucrose); 2 wk 5°C.
Test [11] has the same target. The test is described as follows: AM14 ELISA; F12 (pH 8, 100 mM NaCl, 9.0% sucrose); 1 wk 5°C.
The target is the same in test [12]. The test is described as follows: AM14 ELISA; F12 (pH 8, 100 mM NaCl, 9.0% sucrose); 2 wk 25°C.
Test [13] has the same target. The test is described as follows: AM14 ELISA; F19 (pH 7, 50 mM NaCl, 3% trehalose + 3% mannitol); 1 wk 5°C.
Test [14] has the same target. The test can be described thus: AM14 ELISA; F8 (pH 7, 50 mM NaCl, 0% sucrose); T0.
Test [15] shares this target. The test is described as follows: AM14 ELISA; F14 (pH 7, 50 mM NaCl, 4.5% sucrose); 1 wk 25°C.
Test [16] has the same target. The test can be described thus: AM14 ELISA; F5 (pH 6, 100 mM NaCl, 9.0% sucrose); 1 wk 5°C.

In the case of AM14 Fab, the Prefusion Content (%) was 67% in [1]; 46% in [2]; 76% in test [3]; 70% in [4]; 69% in test [5].

B1: AM14 (trimeric prefusion specific antibody of the AM14 ELISA) (antibody, V domains shown)
VH: EVQLVESGGGVVQPGRSLRLSCAASGFSFSHYAMHWVRQAPGKGLEWVAVISYDGENTYYADSVKGRFSISRDNSKNTVSLQMNSLRPEDTALYYCARDRIVDDYYYYGMDVWGQGATVTVSS
VL: DIQMTQSPSSLSASVGDRVTITCQASQDIKKYLNWYHQKPGKVPELLMHDASNLETGVPSRFSGRGSGTDFTLTISSLQPEDIGTYYCQQYDNLPPLTFGGGTKVEIKR
notes: Antibody as used in the AM14 ELISA, detected with an HRP-labeled secondary antibody
Regarding B1, the “AM14 prefusion content (%), relative to standard” value came to 70% in test [6]; 93% in [7]; 71% in test [8]; 88% in test [9]; 75% in test [10]; 98% in [11]. Besides, the “AM14 prefusion content (%), relative to standard” value in test [12] was 55%; in [13], 74%; in [14], 100%; in test [15], 77%; in test [16], 78%.

These data come from patent publication US20260097113A1 (Pfizer, published 2026).
